According to patent publication US20200377590A1 (Hoffmann-La Roche, published 2020):
Substitutions are numbered along the chain they refer to. Where two headings read alike, the source gives them in different places.

T1: CD81 (UniProt P60033 1-236, limits assumed)
T1 construct: whole, on cells; also called CD81 receptor
T1 sequence (looked up): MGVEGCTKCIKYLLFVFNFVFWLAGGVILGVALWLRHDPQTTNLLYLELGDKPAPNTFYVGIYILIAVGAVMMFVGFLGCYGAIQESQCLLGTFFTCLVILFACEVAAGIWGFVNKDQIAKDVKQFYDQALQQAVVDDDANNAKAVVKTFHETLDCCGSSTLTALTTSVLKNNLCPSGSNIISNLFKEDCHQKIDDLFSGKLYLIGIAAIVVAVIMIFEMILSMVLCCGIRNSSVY

B1: CD81K13 HC CD81K13 / LC 1c-hVK_3_15 (antibody, V domains shown)
VH: EVRLHQSAAQLVQPGASVRLSCTTSGFNFKDSYLHWVKQRPAQGLEWIGRIDTGNGNVKFDPKFQDKATITTDIPSMTAYLHLSNLTSEDTAVYYCVPYGYGFHSWGDGTTLTVSS
VL: EIVMTQSPATLSVSPGERATLSCRASENIYRTLAWYQQKPGQAPRLLIYGATTLADGIPARFSGSGSGTEFTLTISSLQSEDFGVYYCQHFWGTPWTFGQGTKVEIK
notes: human constant region
B2: CD81K13 HC 01-hVH_1_f / LC 1b-hVK_3_15 (antibody, V domains shown)
VH: EVQLVQSGAEVKKPGATVKISCKVSGYTFTDSYMHWVQQAPGKGLEWMGRIDTGNGNVKFDPKFQGRVTITADTSTDTAYMELSSLRSEDTAVYYCAPYGYGFHSWGQGTLVTVSS
VL: B1 VL with G84A
notes: human constant region
B3: CD81K13 HC 01-hVH_1_f / LC 01-hVK_3_15 (antibody, V domains shown)
VH: B2 VH
VL: B1 VL with L54R, D56T
notes: human constant region
B4: CD81K13 HC 01-hVH_1_f / LC 1c-hVK_3_15 (antibody, V domains shown)
VH: B2 VH
VL: B1 VL
notes: human constant region
B5: CD81K13 HC CD81K13 / LC 05-hVK_1_39 (antibody, V domains shown)
VH: B1 VH
VL: DIQMTQSPSSLSASVGDRVTITCRASENIYRTLAWYQQKPGKAPKLLIYAATTLASGVPSRFSGSGSGTDFTLTISSLQPEDFATYYCQHFWGTPWTFGQGTKVEIK
notes: human constant region
B6: CD81K13 HC CD81K13 / LC 1b-hVK_3_15 (antibody, V domains shown)
VH: B1 VH
VL: B1 VL with G84A
notes: human constant region
B7: CD81K13 HC CD81K13 / LC 03-hVK_1_9 (antibody, V domains shown)
VH: B1 VH
VL: B5 VL with M4L, S10F, D70E
notes: human constant region
B8: CD81K13 HC CD81K13 / LC 07-hVK_1_27 (antibody, V domains shown)
VH: B1 VH
VL: B5 VL with A43V, F83V, A84G, H90K
notes: human constant region
B9: CD81K13 HC CD81K13 / LC 01-hVK_3_15 (antibody, V domains shown)
VH: B1 VH
VL: B1 VL with L54R, D56T
notes: human constant region
B10: CD81K13 HC CD81K13 / LC 06-hVK_1_39 (antibody, V domains shown)
VH: B1 VH
VL: B5 VL with A84G
notes: human constant region
B11: CD81K13 HC CD81K13 / LC 04-hVK_1_9 (antibody, V domains shown)
VH: B1 VH
VL: B5 VL with M4L, S10F, D70E, A84G
notes: human constant region
B12: CD81K13 HC CD81K13 / LC 5b-hVK_1_39 (antibody, V domains shown)
VH: B1 VH
VL: B5 VL with A50G, S56D
notes: human constant region
B13: CD81K13 HC CD81K13 / LC 5b-hVK_1_39-GA (antibody, V domains shown)
VH: B1 VH
VL: B5 VL with A50G, S56D
notes: human constant region
B14: CD81K04 HC GG-01-hVH_5_51 / LC GG-02-hVK_4_1 (antibody, V domains shown)
VH: EVQLVQSGAEVKKPGESLKISCKGSGYSFSSSWMNWVRQMPGKGLEWMGRIYSGDGDAIYSPSFQGQVTISADKSISTAYLQLSSLKASDTAMYYCAREGKTGDLLLRSWGQGTLVTVSS
VL: DIVMTQSPDSLAVSLGERATINCKSSKSVSTSIYSYMHWYQQKPGQPPKLLIYYASYRESGVPDRFSGSGSGTDFTLTISSLQAEDVAVYYCQHSREFPFTFGQGTKLEIK
notes: human constant region
B15: CD81K04 HC GG-01-hVH_5_51 / LC JA_GG-07-hVK_7_3 (antibody, V domains shown)
VH: B14 VH
VL: DIVLTQSPASLAVSPGQRATITCRASKSVSTSIYSYMHWYQQKPGQPPKLLIKYASNKDTGVPARFSGSGSGTDFTLTINPVEANDAANYYCLHSREFPYTFGQGTKLEIK
notes: human constant region
B16: CD81K04 HC GG-01-hVH_5_51 / LC GG-05-hVK_3_11 (antibody, V domains shown)
VH: B14 VH
VL: EIVLTQSPATLSLSPGERATLSCRASKSVSTSIYSYLHWYQQKPGQAPRLLIYYASNRETGIPARFSGSGSGTDFTLTISSLEPEDFAVYYCQHSREFPFTFGQGTKLEIK
notes: human constant region
B17: CD81K04 HC GG-01-hVH_5_51 / LC JA_GG-10-hVK_4_1 (antibody, V domains shown)
VH: B14 VH
VL: B14 VL with K24R, S25A, Y53K, R58L, Q93E
notes: human constant region
B18: CD81K04 HC GG-01-hVH_5_51 / LC JA_GG-09-hVK_4_1 (antibody, V domains shown)
VH: B14 VH
VL: B14 VL with Y53K, Y57T, Q93E
notes: human constant region
B19: CD81K04 HC GG-01-hVH_5_51 / LC GG-04-hVK_4_1 (antibody, V domains shown)
VH: B14 VH
VL: B14 VL with M37L, H38A, Y57T, F100Y
notes: human constant region
B20: CD81K04 HC GG-01-hVH_5_51 / LC GG-03-hVK_4_1 (antibody, V domains shown)
VH: B14 VH
VL: B14 VL with M37L, H38A
notes: human constant region
B21: CD81K04 HC GG-01-hVH_5_51 / LC JA_GG-08-hVK_4_1 (antibody, V domains shown)
VH: B14 VH
VL: B14 VL with Y53K, R58L, Q93E
notes: human constant region
B22: CD81K04 HC CD81K04 / LC GG-06-hVK_1_39 (antibody, V domains shown)
VH: QVQLQQSGPELVKPGASVKISCKASGYTFSSSWMNWVKQRPGKGLEWIGRIYSGDGDAIYNGKFKGKATLTADKSSSTAYMQLSSLTSEDSAVYFCAREGKTGDLLLRSWGQGSALTVSS
VL: DIQMTQSPSSLSASVGDRVTITCRASKSVSTSIYSYLNWYQQKPGKAPKLLIYYASYLQSGVPSRFSGSGSGTDFTLTISSLQPEDFATYYCQHSREFPYTFGQGTKLEIK
notes: human constant region
B23: CD81K04 HC GG-01-hVH_5_51 / LC GG-06-hVK_1_39 (antibody, V domains shown)
VH: B14 VH
VL: B22 VL
notes: human constant region
B24: CD81K04 HC CD81K04 / LC GG-02-hVK_4_1 (antibody, V domains shown)
VH: B22 VH
VL: B14 VL
notes: human constant region
B25: CD81K04 HC CD81K04 / LC JA_GG-10-hVK_4_1 (antibody, V domains shown)
VH: B22 VH
VL: B14 VL with K24R, S25A, Y53K, R58L, Q93E
notes: human constant region
B26: CD81K04 HC JA_GG-15-hVH_1_3 / LC CD81K04 (antibody, V domains shown)
VH: QVQLVQSGAEVKKPGASVKVSCKASGYTFSSSWMNWVRQAPGQRLEWMGRIYSGDGDAIYNGKFKGRVTITADTSASTAYMELSSLRSEDTAVYYCAREGKTGDLLLRSWGQGTLVTVSS
VL: DIVLTQSPASLSVSLGQRATISCRASKSVSTSIYSYMHWYQQKPGQPPKLLIKYASYLESGVPARFSGSGSGTDFTLNIHPVEEEDAATYYCEHSREFPFTFGTGTKLEIK
notes: human constant region
B27: CD81K04 HC GG-01-hVH_5_51 / LC CD81K04 (antibody, V domains shown)
VH: B14 VH
VL: B26 VL
notes: human constant region
B28: CD81K04 HC GG-05-hVH_1_18 / LC JA_GG-10-hVK_4_1 (antibody, V domains shown)
VH: B26 VH with R44G, N61A, G62Q, F64L, K65Q, I70M, A72T, A76T, S84R, E89D
VL: B14 VL with K24R, S25A, Y53K, R58L, Q93E
notes: human constant region
B29: CD81K04 HC CD81K04 / LC CD81K04 (antibody, V domains shown)
VH: B22 VH
VL: B26 VL
notes: human constant region; also called CD81K04 (chimeric form)
B30: CD81K04 HC K04_JA-13-hVH_1_3 / LC CD81K04 (antibody, V domains shown)
VH: B26 VH with A72R
VL: B26 VL
notes: human constant region
B31: CD81K04 HC JA_GG-16-hVH_1_3 / LC CD81K04 (antibody, V domains shown)
VH: B26 VH with R44G
VL: B26 VL
notes: human constant region
B32: CD81K04 HC GG-07-hVH_5_51 / LC CD81K04 (antibody, V domains shown)
VH: B14 VH with N35C, R50C
VL: B26 VL
notes: human constant region
B33: CD81K13 HC 01-hVH_1_f / LC CD81K13 (antibody, V domains shown)
VH: B2 VH
VL: DIQMTQSPASLSVSVGETVTITCRASENIYRTLAWYLQKQGKSPQLLVYGATTLADGVPSRFSGSGSGTQYYLKINSLQSEDFGTYHCQHFWGTPWTFGGGTKVEIK
notes: human constant region
B34: CD81K13 HC 01-hVH_1_f / LC 03-hVK_1_9 (antibody, V domains shown)
VH: B2 VH
VL: B5 VL with M4L, S10F, D70E
notes: human constant region

Assays:
CD81 [1] = molecular target: T1, CD81; test: cell ELISA
Protocol: (§1) For the binding cell ELISA assay, HuH7-Rluc-H3 (positive cell line expressing CD81) and HuH7-Rluc-L1 (negative control cell line) were propagated in F-12 DMEM medium with 10% FCS at 37° C. and 5% CO₂. On day 1, the cells were trypsinized at approximately 90% confluence and resuspended at 4×10⁵ cells/mL. […] On day 2, the antibody samples to be tested were prepared in a separate polypropylene round bottom plate with a twofold desired concentration with a final volume of 120 μl. All of the assay samples were diluted in cell culture medium. […] After fixation, each well was washed 3 times with 200 μL PBS/0.05% Tween. The secondary incubation step for detection of bound anti-CD81 antibodies was performed for 2 h at room temperature on a reciprocal shaker. […] Each well was washed three times with 200 μL PBS/0.05% Tween to remove unbound antibodies. […] The absorbance was read using the ELISA Tecan reader at 450 nm with 620 nm reference wavelength.

CD81 [2] = molecular target: T1, CD81; test: cell ELISA; remark: listed apart in the source
Protocol: as §1
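Note: antibody binding to HuH7 cells expressing CD81 versus a CD81-negative HuH7 control line, bound antibody detected by secondary reagent, absorbance at 450 nm with 620 nm reference.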

Binder	ELISA data (CD81 [1])	ELISA data (CD81 [2])
B1	0.95	
B2	0.392	
B3	0.527	
B4	0.617	
B5	0.886	
B6	0.86	
B7	0.949	
B8	0.199	
B9	1.01	
B10	0.811	
B11	0.851	
B12	0.594	
B13	0.751	
B14		0.081
B15		0.061
B16		0.073
B17		0.064

Binder	ELISA data (CD81 [1])	ELISA data (CD81 [2])
B18		0.148
B19		0.186
B20		0.129
B21		0.164
B22		0.185
B23		0.089
B24		0.785
B25		1.06
B26		1
B27		0.082
B28		0.841
B29		1.14
B30		0.974
B31		0.98
B32		0.233
B33	0.272	
B34	0.294	
